Laboratory results: paper PMC10629557

Assays:
[1] = target: phosphorylated origin recognition complex (ORC treated with Clb5-Cdk1 and ATP) (S. cerevisiae) (UniProt P54784); assay: colocalization single-molecule spectroscopy (CoSMoS); surface-tethered ARS1 DNA^AF488; 2.5 nM ORC, 10 nM Cdc6, 2.5 nM labeled Mcm2-7-Cdt1, ATP; time to the first Mcm2-7 association with each DNA, taken by the paper as OCCM formation; apparent first-order association rate, background binding at non-DNA sites fitted; details: remark: other sources report otherwise
[2] = target: origin recognition complex (ORC), wild type, unphosphorylated (S. cerevisiae) (UniProt P54784); assay: as above; details: remark: other sources report otherwise
[3] = target: Mcm4 (UniProt P30665); assay: CoSMoS: labelled Mcm2-7 arrival at ORC-Cdc6-bound DNA; details: reference: wild-type ORC, no CDK
[4] = target: ORC^6C-DY549, wild type, without CDK treatment (S. cerevisiae) (UniProt P54784); assay: FRET or BRET; single-molecule FRET on surface-tethered ARS1 DNA between ORC^6C-DY549 (donor on Orc6 C-terminus) and Mcm2-7^3N-DY650 (acceptor on Mcm3 N terminus), with Cdc6 and Cdt1; MO complex (ORC on the N-terminal face of Mcm2-7) scored if E_FRET > 0.5 for two consecutive frames; low E_FRET in the OCCM

Q: “Cdt1-Mcm2-7^4SNAP-JF646 (Mcm2-7-Cdt1 complex, Mcm2-7 fluorescently labeled at the N-terminus of Mcm4), P29469 1-868; P24279 1-971; P30665 1-933; P29496 1-775; P53091 1-1017; P38132 1-845; P47112 1-604” was tested. Which apparent first-order association rate ka of first Mcm2-7-Cdt1 recruitment (OCCM formation) [1] did it give?
A: The apparent first-order association rate ka of first Mcm2-7-Cdt1 recruitment (OCCM formation) was 0.002 s⁻¹.

Q: What about the apparent first-order association rate ka of first Mcm2-7-Cdt1 recruitment (OCCM formation) [2] of the same substance?
A: Its apparent first-order association rate ka of first Mcm2-7-Cdt1 recruitment (OCCM formation) is 0.0047 s⁻¹.

Q: For “Orc6 (from UniProt P38826) wild-type ORC treated with Clb5-Cdk1 and ATP”, which “other: apparent association rate ka” value [3] is on record?
A: Its value is “weaker; reference 0.0047 ± 0.0003”.

Q: With “Mcm2-7^3N-DY650 (Mcm2-7 complex with an acceptor fluorophore at the N terminus of Mcm3) (from UniProt P29469 1-868; P24279 1-971; P30665 1-933; P29496 1-775; P53091 1-1017; P38132 1-845)” as the substance, how does the percent of first Mcm2-7 landings with the high-E FRET state (MO complex formation) [4] read?
A: Its percent of first Mcm2-7 landings with the high-E FRET state (MO complex formation) is 21%.
